According to patent CN102952191A:

Target: 基因重组表达的CD33胞外区 (recombinant CD33 extracellular domain) (human) (UniProt P20138)
Test: phage ELISA, CD33-ECD coated, HRP/anti-M13 detection

Sequence of UniProt P20138 (P20138 18-259): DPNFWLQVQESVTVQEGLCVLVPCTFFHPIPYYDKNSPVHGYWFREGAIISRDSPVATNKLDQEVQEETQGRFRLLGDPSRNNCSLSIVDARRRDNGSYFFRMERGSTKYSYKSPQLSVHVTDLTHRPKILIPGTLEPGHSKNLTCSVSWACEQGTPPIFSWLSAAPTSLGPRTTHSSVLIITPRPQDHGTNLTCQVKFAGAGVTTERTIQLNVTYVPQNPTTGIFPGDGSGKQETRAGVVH

B1: 噬菌体展示的单链抗体ZJL101 (phage-displayed scFv ZJL101; phage clones No. 3 and No. 4, identical inserts) (scFv, not shown: large carriers)
scFv: MAQVQLVQSGTVVKKPGSSVKVSCKTSGGTLPNHAINWVRQASGQGLEWMGWMSPNTGDTGYARKFQGRVTMTRDTSISTAYMELSSLRSDDTAIYYCATGDPRVGHSWGQGTLVTVSSGGGGSGGGGSGGGGSDIQMTQSPPSLSASVGDRVTITCRASQTIGSHLNWYQQKPGKAPKLLITGASSLQSGVPARFTGSGFGTDFTLTISSLQVEDLATYSCQQTYNTPRTFGQGTKVEIK
  OD450nm: 1.6 OD450nm
